Laboratory results reported in patent US20030215450A1 (published 2003).
One block for each binder: values may come before it.

Tests used:
[1] = target: T1, soluble human RANKL protein (human, UniProt O14788 140-317, limits assumed, biotinylated with NHS-biotin at a 20:1 molar ratio of NHS-biotin to protein (competition ELISA only)); assay: not described with the number; paragraph 33 defines high affinity as determined by optical biosensor analysis
T1 construct: Soluble form; also called shRANKL; sRANKL
T1 sequence (looked up): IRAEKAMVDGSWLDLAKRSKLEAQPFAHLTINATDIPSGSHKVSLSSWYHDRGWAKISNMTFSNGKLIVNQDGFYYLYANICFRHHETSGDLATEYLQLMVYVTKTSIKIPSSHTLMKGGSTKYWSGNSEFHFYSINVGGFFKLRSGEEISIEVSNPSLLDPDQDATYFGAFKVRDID

murine RANK-L = target: T2, murine RANK-L (murine, UniProt O35235 158-316, limits assumed); assay: not described
T2 sequence (looked up): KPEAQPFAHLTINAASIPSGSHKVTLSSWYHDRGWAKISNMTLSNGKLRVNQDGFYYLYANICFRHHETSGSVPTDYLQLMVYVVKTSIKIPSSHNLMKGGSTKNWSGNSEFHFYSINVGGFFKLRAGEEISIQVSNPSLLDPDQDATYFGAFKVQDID

[2] = target: T1, soluble human RANKL protein; assay: cell-based or functional assay
[3] = target: T1, soluble human RANKL protein; assay: competition ELISA: biotinylated shRANKL (0.43 nM) binding to coated RANK-Fc, competitor in solution
Text: A. A competition ELISA was established using a human RANK-Fc fusion protein coated on plastic and a biotinylated soluble human RANKL protein for detection in solution. The RANK-Fc and RANKL proteins were produced in CHO cells and Pichia pastoris, respectively, and purified to >90% homogeneity. The shRANKL (soluble, human RANKL) protein was biotinylated at a 20:1 molar ratio of NHS-biotin to protein (Pierce, Rockford, Ill.) according to the manufacturer's specifications. 96-well ELISA plates were coated overnight at 4° C. with 50 ng/well […] RANK-Fc in pH 9.6 carbonate-bicarbonate buffer. Plates were washed in pH 7.4 Tris-Saline buffer containing 0.1% Tween 20 and blocked for 2 h at RT in 1% BSA/PBS. Competitor proteins (RANK-Fc; death receptor 5 (DR5)-Fc; OPG-Fc; RANKL mAb 2A4) were diluted in 0.01% Tween 20/PBS and added to wells prior to the addition of biotinylated shRANKL (0.43 nM) and the combined samples were incubated for 2 hrs at room temperature. The amount of biotinylated shRANKL bound to coated RANK-Fc (±competitor) was measured using alkaline phosphatase conjugated streptavidin. The substrate for signal detection was 105 PNPP (Pierce Inc., Rockford, Ill.) and absorbance measured at 405 nm using a Spectra Max 340 plate reader.

Kd [1]: ~0.1 nM | binding result (murine RANK-L): no binding | IC50 [3]: ~2 nM
B1: mouse monoclonal antibody 2A4 (antibody, mouse IgG2a, V domains shown)
VH: EVQLVESGGDLVKPGGSLKLSCAASGFTFSRYGMSWVRQTPDKRLEWVATISSGGSYIYYPDSVKGRFTISRDNAKNTLYLQMSSLKSEDTAMYYCARLDGYNYRWYFDVWGTGTTVTVSS
VL: DIVMTQSHKFMSTSVGDRVSITCKASQDVSTAVAWYQQKPGQSPKLLIYSASYRYTGVPDRFTGSGSGTDFTFTISSVQAEDLAVYYCQQHYSSPRTFGGGTNLEIK
notes: the latter are followed; also called mAb 2A4; 2A4 Mab
IC50, formation of multinuclear cells, human monocyte osteoclastogenesis with 50 ng/ml human soluble RANKL plus M-CSF [2]: ~4 µg/mL

IC50 [3]: ~0.5 nM
B2: OPG-Fc (Fc fusion, UniProt O00300 22-194, looked up)
chain: ETFPPKYLHYDEETSHQLLCDKCPPGTYLKQHCTAKWKTVCAPCPDHYYTDSWHTSDECLYCSPVCKELQYVKQECNRTHNRVCECKEGRYLEIEFCLKHRSCPPGFGVVQAGTPERNTVCKRCPDGFFSNETSSKAPCRKHTNCSVFGLLLTQKGNATHDNICSGNSESTQK
notes: Construct not described; also called osteoprotegerin-Fc; not shown: Fc part; not described

IC50 [3]: ~6 nM
B3: human RANK-Fc fusion protein (Fc fusion, UniProt Q9Y6Q6 30-212, looked up)
chain: IAPPCTSEKHYEHLGRCCNKCEPGKYMSSKCTTTSDSVCLPCGPDEYLDSWNEEDKCLLHKVCDTGKALVAVVAGNSTTPRRCACTAGYHWSQDCECCRRNTECAPGLGAQHPLQLNKDTVCKPCLAGYFSDAFSSTDKCRPWTNCTFLGKRVEHHGTEKSDAVCSSSLPARKPPNEPHVYLP
notes: Produced in CHO cells; not shown: Fc part
IC50, formation of multinuclear cells, human monocyte osteoclastogenesis with 50 ng/ml human soluble RANKL plus M-CSF [2]: ~0.5 µg/mL
